Positions count from the first letter of the chain named.
Experiments:
[1] = molecular target: T1, recombinant Fc chimeric conjugate of human EGFR (human, UniProt P00533 25-645); assay: ELISA, coated antigen
T1 construct: extracellular domain; Coated on the ELISA plate; also called HER1; Her1
Description: (§1) Microtiter plates were coated with a) c-Met, IGF-1R, EGFR, HER2, and/or HER3 protein or b) EGFR, HER2, and/or HER3 (recombinant Fc chimeric conjugates of human c-Met, IGF-1R, EGFR, HER2, HER3 or IL12 Rβ1). After a blocking process, specific antibodies from B-cell supernatants bind to the targets and are then detected by a POD-labeled anti-rabbit IgG antibody. The IL12R binding was used as a counter-screen.
(§2) 12.5 μL 0.5 μg/mL protein in PBS was transferred to a microtiter plate incubated and washed 3× with Wash Buffer. 90 μL Block Buffer was added to each well, incubated and washed. 12.5 μL Standard Antibody (Anti-EGF-Receptor; HER2 Rabbit anti-Human Monoclonal (extracellular domain) (SP3) Antibody; HER3 (N-terminal) antibody; start concentration 2 μg/ml; IL-12Rbeta1 antibody start concentration 500 ng/ml) in 1:2 dilutions or sample diluted in ELISA buffer was added, incubated and washed. 12.5 μl 1:5000 POD-Antibody (Anti-rabbit IgG, peroxidase-linked species-specific Fab2 fragment (from donkey) (ECL); assay dilution: 1:5000) in Elisa Buffer was added, incubated and washed. 15 μl TMB was added and 15 μl HCl was added after sufficient development. Absorbance (Optical Density O.D.) was read at 450 nm/620 nm.

[2] = molecular target: T2, recombinant Fc chimeric conjugate of human HER2 (human, UniProt P04626 23-652); assay: ELISA, coated antigen
T2 construct: extracellular domain; Coated on the ELISA plate
Description: as §1, §2

[3] = molecular target: T3, recombinant Fc chimeric conjugate of human c-Met (human, UniProt P08581 25-932); assay: ELISA, coated antigen
T3 construct: extracellular domain; Coated on the ELISA plate
Description: as §1, §2

[4] = molecular target: T2, recombinant Fc chimeric conjugate of …; assay: ELISA, coated antigen; supernatant IgG 51.60 ng/mL
Description: as §1, §2

[5] = molecular target: T4, recombinant Fc chimeric conjugate of human HER3 (human, UniProt P21860 20-643); assay: ELISA, coated antigen; supernatant IgG 51.60 ng/mL
T4 construct: extracellular domain; Coated on the ELISA plate
Description: as §1, §2

[6] = molecular target: T3, recombinant Fc chimeric conjugate of …; assay: ELISA, coated antigen; supernatant IgG 51.60 ng/mL
Description: as §1, §2

[7] = molecular target: T1, recombinant Fc chimeric conjugate of …; assay: ELISA, coated antigen; supernatant IgG 183.28 ng/mL
Description: as §1, §2

[8] = molecular target: T2, recombinant Fc chimeric conjugate of …; assay: as above
Description: as §1, §2

[9] = molecular target: T4, recombinant Fc chimeric conjugate of …; assay: as above
Description: as §1, §2

[10] = molecular target: T3, recombinant Fc chimeric conjugate of …; assay: as above
Description: as §1, §2

[11] = molecular target: T5, recombinant Fc chimeric conjugate of human IGF-1R (human, UniProt P08069 31-935); assay: ELISA, coated antigen
T5 construct: extracellular domain; Coated on the ELISA plate
Description: as §1, §2

[12] = molecular target: T2, recombinant Fc chimeric conjugate of …; assay: ELISA, coated antigen; supernatant IgG 69.04 ng/mL
Description: as §1, §2

[13] = molecular target: T4, recombinant Fc chimeric conjugate of …; assay: ELISA, coated antigen; supernatant IgG 69.04 ng/mL
Description: as §1, §2

[14] = molecular target: T3, recombinant Fc chimeric conjugate of …; assay: ELISA, coated antigen; supernatant IgG 69.04 ng/mL
Description: as §1, §2

[15] = molecular target: T1, recombinant Fc chimeric conjugate of …; assay: ELISA, coated antigen; supernatant IgG 1500.0 ng/ml
Description: as §1, §2

[16] = molecular target: T2, recombinant Fc chimeric conjugate of …; assay: as above
Description: as §1, §2

[17] = molecular target: T4, recombinant Fc chimeric conjugate of …; assay: as above
Description: as §1, §2

T3 sequence (P08581 25-932, change not shown): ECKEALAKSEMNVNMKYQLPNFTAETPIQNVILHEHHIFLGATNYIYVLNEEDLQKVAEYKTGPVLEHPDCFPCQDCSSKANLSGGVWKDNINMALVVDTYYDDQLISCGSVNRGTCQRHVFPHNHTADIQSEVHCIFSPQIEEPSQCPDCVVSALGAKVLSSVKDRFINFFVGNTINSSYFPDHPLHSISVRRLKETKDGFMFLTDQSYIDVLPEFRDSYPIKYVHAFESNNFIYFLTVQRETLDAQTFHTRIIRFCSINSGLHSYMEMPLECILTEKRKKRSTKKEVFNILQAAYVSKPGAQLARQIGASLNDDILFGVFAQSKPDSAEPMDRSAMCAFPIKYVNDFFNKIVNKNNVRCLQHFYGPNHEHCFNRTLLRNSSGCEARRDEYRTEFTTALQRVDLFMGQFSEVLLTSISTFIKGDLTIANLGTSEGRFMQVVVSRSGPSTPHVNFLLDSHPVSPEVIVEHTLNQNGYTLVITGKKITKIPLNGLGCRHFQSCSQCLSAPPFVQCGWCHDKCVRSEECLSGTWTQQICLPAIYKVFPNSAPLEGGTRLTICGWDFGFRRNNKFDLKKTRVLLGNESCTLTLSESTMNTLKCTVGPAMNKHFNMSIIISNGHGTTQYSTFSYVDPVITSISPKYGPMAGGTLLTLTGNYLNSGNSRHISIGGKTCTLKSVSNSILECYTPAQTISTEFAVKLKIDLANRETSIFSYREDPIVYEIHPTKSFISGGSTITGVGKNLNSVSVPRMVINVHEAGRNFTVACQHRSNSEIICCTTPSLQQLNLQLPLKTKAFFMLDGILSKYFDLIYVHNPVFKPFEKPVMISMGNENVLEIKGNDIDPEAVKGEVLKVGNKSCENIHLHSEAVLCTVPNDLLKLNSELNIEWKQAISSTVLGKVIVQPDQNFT
T4 sequence (P21860 20-643, change not shown): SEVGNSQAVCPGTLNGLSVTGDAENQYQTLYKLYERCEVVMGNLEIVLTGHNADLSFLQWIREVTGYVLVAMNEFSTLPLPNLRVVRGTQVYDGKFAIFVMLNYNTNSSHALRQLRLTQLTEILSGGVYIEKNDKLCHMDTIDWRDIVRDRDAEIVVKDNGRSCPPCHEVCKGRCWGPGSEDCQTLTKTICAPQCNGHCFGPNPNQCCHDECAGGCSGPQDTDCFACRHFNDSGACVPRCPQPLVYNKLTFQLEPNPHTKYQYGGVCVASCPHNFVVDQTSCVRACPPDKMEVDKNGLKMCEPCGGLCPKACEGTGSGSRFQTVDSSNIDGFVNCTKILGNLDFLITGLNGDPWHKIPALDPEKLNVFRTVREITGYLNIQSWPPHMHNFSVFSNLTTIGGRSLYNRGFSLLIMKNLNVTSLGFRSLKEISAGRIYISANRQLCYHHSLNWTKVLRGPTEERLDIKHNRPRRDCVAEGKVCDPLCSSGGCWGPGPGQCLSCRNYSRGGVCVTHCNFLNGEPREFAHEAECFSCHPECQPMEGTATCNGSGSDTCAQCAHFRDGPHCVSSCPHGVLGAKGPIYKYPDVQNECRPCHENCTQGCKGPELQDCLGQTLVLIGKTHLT
T5 sequence (P08069 31-935, change not shown): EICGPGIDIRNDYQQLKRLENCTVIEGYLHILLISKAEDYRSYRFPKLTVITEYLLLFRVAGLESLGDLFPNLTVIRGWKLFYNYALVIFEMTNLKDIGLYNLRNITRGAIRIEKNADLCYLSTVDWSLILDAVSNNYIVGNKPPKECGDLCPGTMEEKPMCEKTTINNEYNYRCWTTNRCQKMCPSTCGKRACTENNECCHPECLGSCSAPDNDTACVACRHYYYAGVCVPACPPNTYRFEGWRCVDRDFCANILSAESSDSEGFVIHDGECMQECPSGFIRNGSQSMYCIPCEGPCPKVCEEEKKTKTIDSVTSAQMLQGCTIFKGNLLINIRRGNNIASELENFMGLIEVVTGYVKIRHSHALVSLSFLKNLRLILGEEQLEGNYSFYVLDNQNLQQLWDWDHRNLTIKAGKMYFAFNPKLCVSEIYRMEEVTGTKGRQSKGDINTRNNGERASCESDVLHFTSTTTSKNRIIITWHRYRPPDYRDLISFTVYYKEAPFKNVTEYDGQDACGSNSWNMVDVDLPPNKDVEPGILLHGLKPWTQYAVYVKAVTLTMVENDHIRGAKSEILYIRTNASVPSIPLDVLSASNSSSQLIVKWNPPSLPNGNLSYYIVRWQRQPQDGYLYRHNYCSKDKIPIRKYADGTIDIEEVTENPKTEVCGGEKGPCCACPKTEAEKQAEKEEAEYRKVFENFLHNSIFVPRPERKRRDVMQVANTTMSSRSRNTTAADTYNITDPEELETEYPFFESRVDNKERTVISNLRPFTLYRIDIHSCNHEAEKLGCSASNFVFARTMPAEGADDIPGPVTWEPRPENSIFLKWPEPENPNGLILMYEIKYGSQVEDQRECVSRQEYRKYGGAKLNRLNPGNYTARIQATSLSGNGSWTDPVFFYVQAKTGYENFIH

B1: Antibody 077.D03 (antibody, V domains shown)
VH: QSVEESGGRLVTPGTPLTLTCTVSGIDLSSNAMSWVRQAPGKGLEWIGFISSSGTTYYASWAKGRFTISKTSTTVDLKITSPTTEDTATYFCTRFDLWGQGTLVTVSS
VL: DVVMTQTPASVSEPVGGTVTINCQASQSITTALAWYQQKPGQPPKLLIYKASTLASGVSSRFKGSGSGAEYTLTISDLECADAATYYCQCTGYDTSYVGGFGGGTEVVVK
notes: rabbit IgG in B-cell supernatant
[1]
  binding result: no binding (tested: OD 0.1 or lower)
[2]
  binding result: no binding (tested: OD 0.1 or lower)
[3]
  binding result: no binding (tested: OD 0.1 or lower)

B2: Antibody 77.B08 (antibody, V domains shown)
VH: QEHLVESGGGLVQPEGSLTLTCTASGFDFSSDDMSWVRQAPGKGLEWIGVIGTGNGGTYYASWAKGRFTISKTSSTTVTLQMTSLTAADTATYFCAAFWGLWGPGTLVTVSS
VL: AQVLTQTASPVSTPVGGTVTITCQSSQSVYNNNRLAWFQQKPGQPPKLLIYTASTLASGVPSRFKGSGSGTQFTLTISDLECDDAATYYCAGGYSTDIYTFGGGTEVVVR
notes: as for B1
[4]
  Optical density (OD): 0.112 OD
[5]
  Optical density (OD): 0.242 OD
[6]
  Optical density (OD): 0.144 OD

B3: Antibody B08 (antibody, V domains shown)
VH: B2 VH
VL: B2 VL with T13A, P14A, N33I, A53T, T55S, T96S
notes: as for B1
[7]
  Optical density (OD): 0.405 OD
[8]
  Optical density (OD): 0.402 OD
[9]
  Optical density (OD): 1.14 OD
[10]
  Optical density (OD): 0.7 OD

B4: Antibody D11 (antibody, V domains shown)
VH: B2 VH
VL: B2 VL with A8P, T13A, P14A, T22N, S28N, N31R
notes: as for B1
[11]
  binding result: no binding (tested: OD 0.1 or lower)
[12]
  Optical density (OD): 0.119 OD
[13]
  Optical density (OD): 1.76 OD
[14]
  Optical density (OD): 0.149 OD

B5: Antibody 86 (antibody, V domains shown)
VH: QEQLKESGGGLVTPGGTLTLTCTVSGIDLSNYAMVWVRQAPGKGLEWIGIIYTTASTTYANWAKGRFTISKTSTTVDLKITSPTTEDTATYFCVRRSGWDGFDPWGPGTLVTVSS
VL: AQVLTQTPASVSAAVGGTVTINCQASESISSYLNWYQQKPGQPPKRLIYRTSTLASGVPSRFKGSGSGTDFTLTISGVECADAATYYCQQDWSSSDVENVFGGGTEVVVK
notes: as for B1
[15]
  Optical density (OD): 1.1 OD
[16]
  Optical density (OD): 1.8 OD
[17]
  Optical density (OD): 0.8 OD

— patent US20150259430A1 (MAB DISCOVERY, published 2015)
